Changes are numbered by the printed parent chain.

Sequences and labels used below:
B1: PD-L1 binding agent 10 (antibody, V domains shown)
VH: QVQLVQSGAEVKKPGASVKVSCKASGYTFTGYYMHWVRQAPGQGLEWIGWMSLNSGLTGYAQKFQGRVTMTRDTSTSTVYMELSSLRSEDTAVYYCARDRGWFDPWGQGTLVTVSS
VL: DIQMTQSPSSLSASVGDRVTITCRASQSISSWLAWYQQKPGKAPKLLIYAASTLESGVPSRFSGSGSGTDFTLTISSLQPEDFATYYCQQSYTTPYSFGGGTKVEIK
B2: PD-L1 binding agent 21 (antibody, V domains shown)
VH: QVQLVQSGAEVKKPGASVKVSCKASGYTFTSHYMHWVRQAPGQGLEWMGWMNPNSGHTGNAQKFQGRVTMTRDTSTSTVYMELSSLRSEDTAVYYCARGNWVDAFDIWGQGTMVTVSS
VL: B1 VL with S28G, S30R, S31N, W32D, E55Q, T93S, Y96L, S97T
B3: 34 (antibody, V domains shown)
VH: QVQLVQSGAEVKKPGASVKVSCKASGYTFTRHLLHWVRQAPGQGLEWMGWISPQHGVRNYAHKFQGRVTMTRDTSTSTVYMELSSLRSEDTAVYYCARESVEGYFDLWGRGTLVTVSS
VL: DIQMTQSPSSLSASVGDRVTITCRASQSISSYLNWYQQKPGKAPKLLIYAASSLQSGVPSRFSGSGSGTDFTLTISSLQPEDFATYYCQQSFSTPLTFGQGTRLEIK
B4: 37 (antibody, V domains shown)
VH: QVQLVQSGAEVKKPGASVKVSCKASGYTFTSYGINWVRQAPGQGLEWMGWMNPNSGNTGYAQKFQGRVTMTRDTSTSTVYMELSSLRSEDTAVYYCARGSFPLVFTIFGVGDVWGQGTMVTVSS
VL: DIQMTQSPSSLSASVGDRVTITCRSSQGIRNDLSWYQQKPGKAPKLLIYLASNSHSGVPSRFSGSGSGTDFTLTISSLQPEDFATYYCLQHNSYPLTFGGGTKVEIK
B5: 67 (antibody, V domains shown)
VH: QVQLVQSGAEVKKPGASVKVSCKASGYTFSTHYMHWVRQAPGQGLEWMGWINPNSGHAGSAQKFQGRVTMTRDTSTSTVYMELSSLRSEDTAVYYCARESIAVAGYDYWGQGTLVTVSS
VL: B1 VL with E55Q, S56R, T93S, S97T, G100Q, V104L
B6: 32 (antibody, V domains shown)
VH: B2 VH with H32Y, N60Y, G99E, N100D, W101F, V102Y, D103G, A104D, I107Y, M113L
VL: B1 VL with S28G, S31R, W32Y, E55Q, T93S, Y96L, S97T, G100Q
B7: 5 (antibody, V domains shown)
VH: QVQLVQSGAEVKKPGASVKVSCKASGYTFNRFMHWVRQAPGQGLEWMGWMSLNSGLTGYAQKFQGRVTMTRDTSTSTVYMELSSLRSEDTAVYYCTRGTYNDAFDIWGQGTLVTVSS
VL: B1 VL with S28T, S31N, W32Y, A34N, T53S, E55Q, Y96I, S97T
B8: 70 (antibody, V domains shown)
VH: QVQLVQSGAEVKKPGASVKVSCKASGYTFTDHYLHWVRQAPGQGLEWMGWINPNIGNTGYAQKFQGRVTMTRDTSTSTVYMELSSLRSEDTAVYYCAREPLQLGGFDYWGQGTLVTVSS
VL: B1 VL with Q27E, T53S, E55Q, T93S, Y96L, S97T, G100Q, V104L
B9: 35 (antibody, V domains shown)
VH: QVQLVQSGAEVKKPGASVKVSCKASGYPFSSYYMHWVRQAPGQGLEWMGMINPSGGSTSYAQKFQGRVTMTRDTSTSTVYMELSSLRSEDTAVYYCARDIFPTMIAGGGFDLWGRGTLVTVSS
VL: B1 VL with A50D, T53N, S56T, T93S, Y96P, S97T, G100Q
B10: 4 (antibody, V domains shown)
VH: QVQLVQSGAEVKKPGASVKVSCKASGYTFTSHHMHWVRQAPGQGLEWMGWVSPSHGLTGYAQKFQGRVTMTRDTSTSTVYMELSSLRSEDTAVYYCARDNWNVHDAFDIWGQGTLVTVSS
VL: B1 VL with S28G, W32Y, A50G, T53N, E55Q, T93S, Y96L, S97T
B11: 68 (antibody, V domains shown)
VH: QVQLVQSGAEVKKPGASVKVSCKASGYTFTGYYMHWVRQAPGQGLEWMGWINPNSGTTGYAQNFQGRVTMTRDTSTSTVYMELSSLRSEDTAVYYCAREGFGPNAFDIWGQGTTVTVSS
VL: B1 VL with T53N, E55Q, S91Y, T93S, S97T, G100Q
B12: 69 (antibody, V domains shown)
VH: QVQLVQSGAEVKKPGASVKVSCKASGYTFTSYYMHWVRQAPGQGLEWMGWINPNSGNTGYAQKFQGRVTMTRDTSTSTVYMELSSLRSEDTAVYYCARDDWGGDWFDYWGQGTLVTVSS
VL: DIQMTQSPSSLSASVGDRVTITCQASQDISNHLNWYQQKPGKAPKLLIYGASNLQRGVPSRFSGSGSGTDFTLTISSLQPEDFATYYCQQSYSTPITFGQGTRLEIK
B13: 33 (antibody, V domains shown)
VH: QVQLVQSGAEVKKPGASVKVSCKASGYTFTRHFIHWVRQAPGQGLEWMGWIDPNSGVTSSAQKFQGRVTMTRDTSTSTVYMELSSLRSEDTAVYYCARELSRWGFDYWGPGTMVTVSS
VL: EIVMTQSPATLSVSPGERATLSCRASQTVSSNYLAWYQQKPGQAPRLLIYGASTRASGIPARFSGSGSGTEFTLTISSLQSEDFAVYYCQQYYTTPLTFGGGTKVEIK
B14: 6 (antibody, V domains shown)
VH: QVQLVQSGAEVKKPGASVKVSCKASGYTFTSYYIHWVRQAPGQGLEWMGWMKPSSGTTGYAQKFQGRVTMTRDTSTSTVYMELSSLRSEDTAVYYCAREQWLVNDAFDIWGQGTLVTVSS
VL: B13 VL with T28S, S30D, S31R, L34V, A35T, S57T, Y92S, L97Y, G101Q
B15: 66 (antibody, V domains shown)
VH: QVQLVQSGAEVKKPGASVKVSCKASGYTFSSYYMHWVRQAPGQGLEWMGWITTNSGITGYAQKFQGRVTMTRDTSTSTVYMELSSLRSEDTAVYYCAREGYSSGLDYWGQGTLVTVSS
VL: not shown

T1 sequence (Q9NZQ7 19-290 limits assumed): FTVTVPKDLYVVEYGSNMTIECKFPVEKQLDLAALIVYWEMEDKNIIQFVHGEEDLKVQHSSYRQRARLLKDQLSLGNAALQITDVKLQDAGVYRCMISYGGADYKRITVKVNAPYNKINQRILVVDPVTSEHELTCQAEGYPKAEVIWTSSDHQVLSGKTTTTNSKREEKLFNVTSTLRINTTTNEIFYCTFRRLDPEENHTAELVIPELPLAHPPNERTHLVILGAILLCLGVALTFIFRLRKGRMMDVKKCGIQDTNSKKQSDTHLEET

The first assay deals with PD-L1 on CHO-K1/PD-L1/alphaAPC stimulator cells (UniProt Q9NZQ7 19-290, limits assumed). Briefly: cell-based or functional assay.
Chain of PD-L1 on CHO-K1/PD-L1/alphaAPC stimulator cells (Q9NZQ7 19-290 limits assumed): as above
With B1, the “EC50 (nM), PD-L1/PD-1 blockade, luciferase reporter cells” value was found to be 2.02 nM and the “EC50 (ng/ml), PD-L1/PD-1 blockade, luciferase reporter cells” value came to 291 ng/mL.

For the molecule B2, the “EC50 (nM), PD-L1/PD-1 blockade, luciferase reporter cells” value is 0.9 nM and the “EC50 (ng/ml), PD-L1/PD-1 blockade, luciferase reporter cells” value was determined as 129 ng/mL.

The next assay concerns the target T1, human PD-L1 (hPD-L1) (human, UniProt Q9NZQ7 19-290).
T1 construct: Endogenous hPD-L1 on JIMT1 (JIMT-1) cells; also called programmed death-ligand 1; CD274
Briefly: flow cytometry on JIMT-1 cells expressing endogenous human PD-L1; anti-human IgG Fc secondary; geometric MFI. The method, then: Binding of the binding agents of an embodiment of the invention to human PD-L1 (hPD-L1) on cell surfaces was assessed by incubating the binding agents with JIMT1 cells that express endogenous hPD-L1. Briefly, the binding agents were diluted serially in FACS buffer (PBS+1% FBS+5 mM EDTA, pH 7.4) at 4° C. Diluted binding agents were applied to JIMT1 cells (˜1×10⁵-2×10⁵ per well) and incubated at 4° C. […] After unbound secondary antibody was washed out, cells were resuspended in FACS buffer plus 2% formaldehyde and analyzed by flow cytometry. The intensity of fluorescence, expressed as geometric mean fluorescence intensity, was used to determine anti-PDL1 binding agent binding to hPD-L1 on cell surface.
As to B3, the binding result was “binds”.

In the case of B4, the binding result is “binds”.

With B5, the binding result is on record as “binds”.

Consider B6, for which the binding result was “binds”.

Consider B7, for which the binding result is “binds”.

B8: the binding result is listed as “binds”.

Take B9: the binding result is on record as “binds”.

For B10, the binding result was “binds”.

Regarding B11, the binding result is reported as “binds”.

In the case of B12, the binding result is “binds”.

Consider B13, for which the binding result is “binds”.

With B14, the binding result is recorded as “binds”.

For the molecule B15, the binding result was “binds”.
